Measured values reported in publication PMC9242856, “Structural basis of sodium-dependent bile salt uptake into the liver” (Nature, 2022).

What was measured:
[1] = molecular target: T1, wild-type human Na+-taurocholate co-transporting polypeptide (NTCP) expressed on HEK 293F cells (human, UniProt Q14973); test: fluorescent ligand labelling of cells (plate reader); HEK 293F cells expressing NTCP constructs in PBS; labelled with 10 nM (wild-type NTCP) or 50 nM (NTCPEM) purified myr-preS1_48-GFP for 30 min; where tested, pre-incubation with 10 uM nanobody for 1.5 h; GFP fluorescence, excitation 470 nm, emission 508 nm; conditions: one partner purified
T1 construct: Na+-taurocholate co-transporting polypeptide (NTCP, SLC10A1), human, wild type; also called wild-type NTCP; SLC10A1; source: HEK 293F, transient transfection, on cells
T1 sequence (Q14973 whole entry): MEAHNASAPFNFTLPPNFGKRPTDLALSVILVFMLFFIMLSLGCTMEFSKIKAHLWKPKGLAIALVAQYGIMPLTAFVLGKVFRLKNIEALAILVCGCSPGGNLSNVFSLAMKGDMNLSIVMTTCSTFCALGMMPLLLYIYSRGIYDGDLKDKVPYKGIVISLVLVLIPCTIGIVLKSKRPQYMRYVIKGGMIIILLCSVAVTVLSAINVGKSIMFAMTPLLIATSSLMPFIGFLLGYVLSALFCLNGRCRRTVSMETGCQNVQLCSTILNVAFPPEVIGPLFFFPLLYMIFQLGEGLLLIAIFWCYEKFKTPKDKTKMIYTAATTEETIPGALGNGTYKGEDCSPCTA

[2] = molecular target: NTCPEM expressed on HEK 293F cells (human) (UniProt Q14973)
Chain of NTCPEM expressed on HEK 293F cells (human) (Q14973 other isoform, or with tags, fused parts or gaps, change not shown): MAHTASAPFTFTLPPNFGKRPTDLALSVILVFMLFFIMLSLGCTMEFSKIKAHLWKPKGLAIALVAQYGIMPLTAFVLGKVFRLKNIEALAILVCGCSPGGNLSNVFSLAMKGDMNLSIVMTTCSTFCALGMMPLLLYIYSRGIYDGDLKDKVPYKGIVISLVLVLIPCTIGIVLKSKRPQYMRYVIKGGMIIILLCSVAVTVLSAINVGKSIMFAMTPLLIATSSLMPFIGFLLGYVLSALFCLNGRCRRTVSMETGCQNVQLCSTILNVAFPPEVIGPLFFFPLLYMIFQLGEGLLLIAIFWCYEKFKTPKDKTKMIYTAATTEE

| Binder | binding result [1] | IC50 of inhibition of Na+-induced uptake of the fluorescent substrate tauro-nor-THCA-24-DBD by cells expressing NTCPEM [2] |
| --- | --- | --- |
| Nanobody 87 (VHH, llama (Lama glama) nanobody raised against NTCPCO; the nanobody chain of PDB 7PQG; Tags are those of the phage display vector pMESy4 as told for the library; also called Nb87; source: E. coli periplasm, purified (Ni-NTA, SEC)) VHH: QVQLVESGGGLVQAGGSLRLSCAVSGRTTANYNMGWFRQAPGKEREFVAGIKWSSGSTYVADSAKGRFTISRDNAKNSVYLQMDSLKPEDTALYYCAANYYGVSWFLISPSSYDYWGQGTQVTVSS | binds | 180 nM |
| Nanobody 91 (VHH) VHH: QVQLVESGGGLVEAGGSLRLSCAASTNLRSYAMAWFRQAPGKEREFVSFINWNYGNTRYADSVKGRFTISRDNAKITVYLQMNSLKPEDTAVYYCAAATIGRLAGIDSTTLYDYWGQGTQVTVSS | – | 34 nM |
